From the DeepSol protein solubility set

Assay: soluble on expression in E. coli; label from the status in PepcDB or PDB records

MGSDKIHHHHHHVPSGNGDNPATGARGGNMEISFLVPNSSNGSRAASAEDSGVYEDGTAEEYKVSNVTLYLFDSSSKNLVTTINVTQSDLGAGTSSGESSKEGQTIVYPCNKEITVKPGNYDILAVANGSQTFEIGQESTLLGQIDASTYGNGMITSVPGSGFIMSNRGSANMNITVESPEESDTKTQVRINLERAVAKLMVRNDSKEIYTLKNPAGVTYATVRLNNYKFINLANKFYTFRHVATLDNAPETPSAPSSYSVEAGNFGNIADNNGYLIDPYFFDKTVAGATTNFTGGSFYTNHLSKQTDSNWSGLADAGKYVSMYCLENCMFRPAQNTVYTTGIMLKGTFTPEASQTIGNNGNPVEDPLVFNTLYYFNYKFYTTLAAVGKYGDANIDGLTEESSDAELAAKQITRFTKNGGNFSTFYNYWIKHLDNNNPTVMGVMEFGIVRNNIYSVNITSIKNLGPGTPDTKPDPDENKAFLDVEFGVYPWIVRDQDADLE
soluble on expression in E. coli: not soluble

PGDESEEQSIKAGMMVCHVFVPGFDDLSEQQQIHMAQAIDHPVRKTAHATEYAMLAGLVLGAVTVSIIRWKNVLVSVCIAVLYASTDELHQLFVPGRSGQVKD
soluble on expression in E. coli: not soluble

MNDEEKPCIENILSAAEELEKLGYEPVIIADASLRHEIDDKEQFRKLLEEGKFQQVPSGTSADHFILKMAEEEDAKILSNDVFRDYKDEFQDINSRRIPYTFREDKILIGTSGKPKKVKNILQKICNEALEHHHHHH
soluble on expression in E. coli: not soluble

GCSDGGREALVAAQRYPDDFNGIIAGAPALNFQVQKTLYHGWMARSNIGPDGKPILLASRLPLLHKAVLAKCDVLDGQIDGLIADPRLCNFDPASVQCTSSVDTTNCLTQQEVAVVKRFYEGPKDPDSGERLTVGGPQPGSELGWAGVFVPITAEQTVYSEKAASEAIRNMVFENNPVAGFDLSTLRFDKSTFDKLRPLHPLYDATNPDLAPFASRGGKLILWHGWADPNVSPLNTLAYHEAVEAKLGKARTEAFESLYMLPGVYHCGAGEGPSVIDLLTPMMAWVESNHAPD
soluble on expression in E. coli: not soluble

MKISMEGSSVINLEQLSLYQDSLGYLGQQMNFPEKMTFHPKIFEETISKSHPGYEDLLAYREVMMNYTLSEIKAIYTDTFDFSKKHPLYMTFNKFDTQKERGQMLAKLKVLYEMFGLKMVDNELSDFLPLMLQFLQVADFKNDSRAQENLQLVIMIIEDGTYEMANTLAENNNPYAYVVSALRKTLKACIVPLKEVENHA
soluble on expression in E. coli: not soluble

DIVEAQPSHPDKLLEVPLGRDISGMVQTADLSKMPHLLIAGSTGSGKSVAINGIITGILMQAKPHEVKLMMIDPKMVELNVYNGIPHLLTPVVTNPRKAAQALQKVVQEMEFRYEKFAATGVRNITGYNQLIQQKNAEDGENRPILPFIVVIVDELADLMMVASNEVEDAIIRLAQMARAAGIHMILATQRPSV
soluble on expression in E. coli: not soluble

MQLKGKTAIVTGSSRGLGKAIAWKLGNMGANIVLNGSPASTSLDATAEEFKAAGINVVVAKGDVKNPEDVENMVKTAMDAFGRIDILVNNAGITRDTLMLKMSEKDWDDVLNTNLKSAYLCTKAVSKIMLKQKSGKIINITSIAGIIGNAGQANYAASKAGLIGFTKSIAKEFAAKGIYCNAVAPGIIKTDMTDVLPDKVKEMYLNNIPLKRFGTPEEVANVVGFLASDDSNYITGQVINIDGGLVM
soluble on expression in E. coli: soluble

MNAKAVKEVLKAHVGRAYAPYSGFPVVALVEAEGEVFLGVNVENASFPLSQCAERNAVAAMVLAGKRRLERVHVYSPKGPIPPCGGCRQVLMEFGGPEVEVVLHGPEEEVRTTLGALLPLAFRL
soluble on expression in E. coli: soluble

MSLKKGYELLIFDWDGTLADSIGRIVEAMNVAAERAGEAQSSDAAVKGIIGLALDEAIHTLYPHLAPAEVASFRQHYADVYVALDQQPSPLFDGVVESLDAFRAEGYRLAVATGKARRGLDRVLKANGWERFFDITRAADETRGKPHPLMLEEILGHCGVEPSRALMVGDSAFDLQMASNAGMHSVAVGYGAMSLQALAEFGPQVCIDHFSQLREWLGGSAIPLPREGHHHHHH
soluble on expression in E. coli: soluble

GPGSMFYKMKLERNIKVEPHLLERTLHRHLEEYLRKAVEGTPLHLSLGNALRSGLARTNQNSSAVIIAVLDILNTSSLEGRVLDDGSVSFFVKYEGLVFKLHRGEVIDVIVSSVEREGWWGDVMGVGRMYISRGQMGNEWVYESDGMRGIWITKDGARSVKEGEIVRVRVVAETPQSEGVLAVGSMVGNYLGPL
soluble on expression in E. coli: not soluble

AHIVYDDVRDLKAIIQALLKLVDEALFDIKPEGIQLVAIDKAHISLIKIELPKEMFKEYDVPEEFKFGFNTQYMSKLLKAAKRKEEIIIDADSPEVVKLTLSGALNRVFNVNNIEVLPPEVPEVNLEFDIKATINASGLKNAIGEIAEVADTLLISGNEEKVVVKGEGENKVEVEFSKDTGSLADIEFNKESSSAYDVEYLNDIISLTKLSDYVKVAFADQKPMQLEFNMEGGGKVTYLLAPKLS
soluble on expression in E. coli: soluble

SEQTEVLKPRTLADLIRILHQLFAGDEVNVEEVQAIMEAYESDPTEWAMYAKFDQYRYTRNLVDQGNGKFNLMILCWGEGHGSSIHDHTNSHCFLKMLQGNLKETLFAWPDKKSNEMVKKSERVLRENQCAYINDSVGLHRVENISHTEPAVSLHLYSPPFDTCHAFDQRTGHKNKVTMTFHSKFGIRTPNATSGSLENN
soluble on expression in E. coli: soluble

RGSGWFAGFPVYSWFFGRDGLWMALAANMVGLAGLTYEHTNMLLKYSDDGRIPHEIGLADDGDQGYTIGETKFNTMYMSIDSSPLWLLASASMENWDRSRFEERHLKKVFDFIASCDTDGDGLIENDFRRGLIGWPETWANIRNGKTVDVNALWIEVLRIFGYRFGYDEYQKIRDRYMSTFFAGANSVDFVDMEYHEIRSAMQFVPGIFMRNEAIRSRIKDLSAGMMTPWGIRSMSVYDPMYDGGYHTGTVWPLMTGWFVIAAYKNGLPDLAFNQMRTFVDLAFSADDPGRINETYDAMMPQPTGQFAQGWSSSMLLLSVLQGMLNIDPLS
soluble on expression in E. coli: not soluble

SKEDCLPSSHVPISDSKSIQKSELLGLLKTYNCYHEGKSFQLRHREEEGTLIIEGLLNIAWGLRRPIRLQMQDDREQVHLPSTSWMPRRPSCPLKEPSPQNGNITAQGPSIQPVHKAESSTDSSGPLEEAEEAPQLMRTKSDASCMSQRRPKCRAPGEAQRIRRHRFSINGHFYNHKTSVFTPAYGSVTNVRVNSTMTTLQVLTLLLNKFRVEDGPSEFALYIVHESGERTKLKDCEYPLISRILHGPCEKIARIFLMEADLGVEVPHEVAQYIKFEMPVLDSFVEKLKEEEEREIIKLTMKFQALRLTMLQRLEQLVEAK
soluble on expression in E. coli: soluble

HSIISETTNTNYRQEFVQLGTQMSGKLSFEEWKELYRRIVFWEIELEQADRQMGELLEMQKQEANRLFARFVTQNYREWIAKPDTRPTMSPDLFKQKVFPLLDNGEKVFFILIDNFRQDQWESVKSMLSEFYTFEEDMYLSILPTATQYARNAIFSGLMPLQIEKMFPDLWVDEESEEGKNLNEEPMIRTLIERYRKHYSFSYNKVYETKFGERLLGQIRSLSQNQLNVIVLNFVDMMSHARTDSKMIRELASNEAAYRSLTKSWFKHSTTYNLFRSIAEMGYKVVLTTDHGTIQVKNPVKVIGDRSTNTNLRYKIGKNLDYNPKEVFEIKDPASVGLPHNNLSDKFIFTKEDDFFAYPNNYNYYVQYYRNTFQHGGISLEEMLVPVITMQPK
soluble on expression in E. coli: soluble

MQSIKGNHLVKVYDYQEDGSVLLTCDAEAKNITWFKDGKMIGFLTEDKKKWNLGSNAKDPRGMYQCKGSQNKSKPLQVYYRMGSADDAKKDAAKKDDAKKDDAKKDGSDGNEEMGGITQTPYKVSISGTTVILTCPQYPGSEILWQHNDKNIGGDEDDKNIGSDEDHLSLKEFSELEQSGYYVCYPRGSKPEDANFYLYLRARV
soluble on expression in E. coli: soluble

MKKLVLIGGGYGNMRVLHRLLPNQLPDDVSITLIDRNPYHCLKTEYYALAAGTISDHHIRVSFPEHPRLDVQYGDITSIDIVQKQVLFQDREPISYDDAIIGLGCEDKYHNVPGAPEFTYSIQTIDQSRETYQKLNNLSANATVAIVGAGLSGVELASELRESRDDLNIILFDRGNLILSSFPERLSKYVQKWFEEHGVRIINRANITKVEEGVVYNHDDPISADAIVWTAGIQPNKVVRDLDVEKDAQGRIVLTPHHNLPGDEHLYVVGDCASLPHAPSAQLAEAQAEQIVQILQKRWNGEALPESMPQFKLKGVLGSTRK
soluble on expression in E. coli: soluble
